PMC4523205
Where two headings read alike, the source gives them in different places.

What was measured:
[1] = biological target: 7B2 Fab; assay: SPR; conditions: for response: sensorgram read at ~140 seconds after starting injection of 7B2 Fab, parent: est. 1400, read off a plot
[2] = biological target: rhesus macaque FcγR3A-1 (rhesus macaque) (UniProt A3RFZ7); assay: SPR
[3] = biological target: rhesus macaque FcγR3A-3 (rhesus macaque) (UniProt A3RFZ7); assay: SPR; mAb binding to recombinant purified Fc receptors; who was immobilised is not stated
[4] = biological target: rhesus macaque FcγR3A-1 (rhesus macaque) (UniProt A3RFZ7); assay: as above
[5] = biological target: Env of SHIV-BaL, on virions (HIV-1 (env of SHIV-BaL))
[6] = biological target: Env of HIV-1 BaL.B, on virions (HIV-1)
[7] = biological target: Env of HIV-1 SF162.B, on virions (HIV-1) (UniProt P19550)
[8] = biological target: human FcγRIIIa/CD16 (human) (UniProt O75015); assay: SPR; mAb binding to recombinant purified Fc receptors; who was immobilised is not stated
[9] = biological target: human FcγRI (CD64) (human) (UniProt P12314); assay: as above
[10] = biological target: gp41_(596-606) peptide with Cys604 substituted by Ala, N-terminal biotin (HIV-1) (UniProt P04578); assay: SPR; BIAcore 4000; biotinylated 11mer and its alanine-substituted variants on a streptavidin chip; 7B2 (Fab by the legend) at 20 μg/ml; responses of the irrelevant antibody Synagis subtracted
[11] = binding response at saturation (~140 seconds after starting injection of 7B2 Fab)

rhesus macaque FcγR3A-1 (rhesus macaque), sequence (A3RFZ7 21-206): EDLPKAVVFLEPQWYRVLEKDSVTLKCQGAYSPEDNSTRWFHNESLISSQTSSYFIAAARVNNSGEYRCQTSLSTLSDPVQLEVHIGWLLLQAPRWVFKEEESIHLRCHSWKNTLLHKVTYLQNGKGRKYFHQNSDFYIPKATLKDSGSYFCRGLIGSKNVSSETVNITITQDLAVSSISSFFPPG
rhesus macaque FcγR3A-3 (rhesus macaque), sequence (A3RFZ7 21-206): as above
human FcγRI (CD64) (human), sequence (P12314 16-292): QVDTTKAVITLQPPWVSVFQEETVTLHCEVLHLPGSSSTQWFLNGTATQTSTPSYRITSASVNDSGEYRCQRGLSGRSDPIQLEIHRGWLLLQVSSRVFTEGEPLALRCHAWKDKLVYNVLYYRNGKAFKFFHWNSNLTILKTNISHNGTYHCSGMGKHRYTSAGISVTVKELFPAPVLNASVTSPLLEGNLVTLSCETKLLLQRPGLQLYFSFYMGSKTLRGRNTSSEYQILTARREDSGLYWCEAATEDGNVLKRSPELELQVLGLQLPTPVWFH

Substance | ratio to parent [1] | ratio to parent [1, 11] | further results
gp41_(596-606) peptide, wild type, N-terminal biotin C598A | 25 | 0.16 | response [1]: 200 RU
7B2 IgG1_AAA |  |  | Kd [2]: 0.0929 µM
A32 IgG1_AAA (antibody) |  |  | Kd [3]: 0.056 µM; koff [3]: 0.0061 s⁻¹; kon [3]: 110000 M⁻¹ s⁻¹; Kd [4]: 0.05 µM; koff [4]: 0.0094 s⁻¹; kon [4]: 190000 M⁻¹ s⁻¹
gp41_(596-606) peptide, wild type, N-terminal biotin K601A | 0.59 | 1.24 | 
gp41_(596-606) peptide, wild type, N-terminal biotin I603A | 31.7 | 0.32 | response [1]: 430 RU
gp41_(596-606) peptide, wild type, N-terminal biotin W596A | 8.65 | 0.83 | 
A32 IgG1_AAA |  |  | Kd [2]: 0.0462 µM
gp41_(596-606) peptide, wild type, N-terminal biotin T606A | 1.11 | 0.89 | 
gp41_(596-606) peptide, wild type, N-terminal biotin T605A | 0.79 | 0.99 | 
gp41_(596-606) peptide, wild type, N-terminal biotin G600A | 0 | 0 | 
gp41_(596-606) peptide, wild type, N-terminal biotin G597A | 5.15 | 0.6 | 
7B2 IgG1_AAA (antibody) |  |  | neutralisation of SHIV-BaL in the TZM-bl assay, IC50 [5]: > 50 µg/mL; neutralisation of HIV-1 BaL in peripheral blood monocytes differentiated into macrophages, ID50 [6]: 0.05 µg/mL; neutralisation of HIV-1 SF162 in macrophages, IC90 [7]: 0.2 not printed; Kd [8]: 1.1 µM; Kd [3]: 0.147 µM; Kd [9]: 0.049 µM; Kd [4]: 0.0687 µM
gp41_(596-606) peptide, wild type, N-terminal biotin L602A | 4.65 | 0.38 | 
7B2 Fab |  |  | off-rate relative to the wild-type peptide (fold) [10]: 2.8 fold
gp41_(596-606) peptide, wild type, N-terminal biotin S599A | 21.4 | 0.64 | response [1]: 880 RU
